Experimental data from the supplement of paper PMC7877785.
± gives the uncertainty stated by the source.

Test: self-splicing fitness, log relative to wild type (ln ratio); higher = more splicing; Tetrahymena group I intron in knt gene, E. coli kanamycin selection, DiMSum; sequences stand for … in CUCUCU…GGAGGGAAAAGUUAUCAGGCAUGCACCUGGUAGCUAGUCUUUAAACCAAUAGAUUGCAUCGGUUUAAAAGGCAAGACCGUCAAAUUGCGGGAAAGGGGUCAACAGCCGUUCAGUACCAAGUCUCAGGGGAAACUUUGAGAUGGCCUUGCAAAGGGUAUGGUAAUAAGCUGACGGACAUGGUCCUAACCACGCAGCCAAGUCCUAAGUCAACAGAUCUUCUGUUGAUAUGGAUGCAGUUCACAGACUAAAUGUCGGUCGGGGAAGAUGUAUUCUUCUCAUAAGAUAUAGUCGGACCUCUCCUUAAUGGGAGCUAGCGGAUGAAGUGAUGCAACACUGGAGCCGCUGGGAACUAAUUUGUAUGCGAAAGUAUAUUGAUUAGUUUUGGAGUACUCGUGGUCG
In short: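 Colonies from six replicate transformations of E. coli BL21(DE3) were pooled and amplicon-sequenced on an Illumina HiSeq 2500. The library placed an intron with all eight P1ex-region nucleotides randomised inside the knt kanamycin-resistance gene on pET-22b(+), and cells grew overnight at 37°C or 30°C on LB agar with or without 25 μg/mL kanamycin (plus 100 μg/mL carbenicillin, 50 μM IPTG, 0.2% rhamnose). Fitness is the DiMSum error-weighted combination of wild-type-normalised replicate fold changes, kanamycin versus none.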

Sequence | self-splicing fitness (ln) (30 °C) | self-splicing fitness (ln) (37 °C)
AUACAGCAAUAUUACGUGAA | -2.19 ± 0.077 | -1.08 ± 0.076
AUAGAGCAAUAUUACGACUG | -2.11 ± 0.13 | -0.786 ± 0.18
CGGAAGCAAUAUUACGCGUU | -3.9 ± 0.34 | -2.9 ± 0.33
GCGAAGCAAUAUUACGCCCC | -2.37 ± 0.46 | 
GAUUAGCAAUAUUACGGGGU | -3.45 ± 0.18 | -2.11 ± 0.13
ACGAAGCAAUAUUACGCCUA | -1.93 ± 0.15 | -1.1 ± 0.12
AUCAAGCAAUAUUACGUACA | -1.21 ± 0.1 | -0.544 ± 0.12
AAUGAGCAAUAUUACGUAGU | -3.83 ± 0.22 | -2.22 ± 0.21
UCAUAGCAAUAUUACGUUAA |  | -3.44 ± 0.42
UCAAAGCAAUAUUACGAGCU | -2.83 ± 0.23 | -1.38 ± 0.22
UAGGAGCAAUAUUACGGAUG | -3.62 ± 0.12 | -1.69 ± 0.11
AUGCAGCAAUAUUACGCCCG | -1.22 ± 0.2 | -0.571 ± 0.29
CCGAAGCAAUAUUACGACCG | -0.936 ± 0.13 | -0.0137 ± 0.17
AAGUAGCAAUAUUACGAGCC | -2.87 ± 0.22 | -1.34 ± 0.25
GUCCAGCAAUAUUACGGAAC | -1.88 ± 0.12 | -0.802 ± 0.11
ACCUAGCAAUAUUACGUUCA | -1.4 ± 0.099 | -1.05 ± 0.12
ACGUAGCAAUAUUACGGGAG | -3.63 ± 0.17 | -2.28 ± 0.17
AGCCAGCAAUAUUACGAAGU | -4.11 ± 0.22 | -1.75 ± 0.12
CCCCAGCAAUAUUACGCUAU | -3.43 ± 0.15 | -1.9 ± 0.13
ACAUAGCAAUAUUACGGUGA | -0.929 ± 0.066 | -0.247 ± 0.086
ACCUAGCAAUAUUACGGACG | -0.864 ± 0.07 | -0.114 ± 0.1
GUUCAGCAAUAUUACGGAGG | -2.38 ± 0.13 | -1.22 ± 0.17
AUGGAGCAAUAUUACGAUUU | -1.08 ± 0.12 | -1.6 ± 0.16
GGUUAGCAAUAUUACGCUUG | -2.32 ± 0.15 | -1.82 ± 0.2
AGUCAGCAAUAUUACGUGUA | -3.11 ± 0.14 | -0.76 ± 0.086
UGGCAGCAAUAUUACGCGUG | -1.25 ± 0.14 | -0.356 ± 0.14

Sequence | self-splicing fitness (ln) (30 °C) | self-splicing fitness (ln) (37 °C)
CGUGAGCAAUAUUACGGGAG | -3.67 ± 0.24 | -2.52 ± 0.19
UGGUAGCAAUAUUACGAUGA | -0.831 ± 0.13 | -0.597 ± 0.19
AACAAGCAAUAUUACGGAUA | -3.95 ± 0.2 | -2.18 ± 0.12
AUUUAGCAAUAUUACGGGAG | -2.97 ± 0.41 | -0.342 ± 0.16
GAUCAGCAAUAUUACGCGGC | -3.7 ± 0.37 | -2.89 ± 0.4
UAAAAGCAAUAUUACGCCGC |  | -1.17 ± 0.23
GAAAAGCAAUAUUACGCUAU | -2.9 ± 0.21 | -0.854 ± 0.2
CACCAGCAAUAUUACGUAAC | -2.87 ± 0.13 | -0.914 ± 0.14
CGUAAGCAAUAUUACGGAGC | -4.17 ± 0.39 | 
AUGAAGCAAUAUUACGUCUA | 0.344 ± 0.094 | 0.623 ± 0.11
UCUGAGCAAUAUUACGCACA |  | -1.23 ± 0.49
CGAGAGCAAUAUUACGGACA | -1.85 ± 0.28 | -3.4 ± 0.39
AUUCAGCAAUAUUACGUUUC | -3.75 ± 0.16 | -2.13 ± 0.24
UCACAGCAAUAUUACGCUCG | -1.15 ± 0.086 | 0.16 ± 0.1
UCUUAGCAAUAUUACGCGCA | -0.966 ± 0.29 | -1.53 ± 0.23
CGCCAGCAAUAUUACGCUGC | -4.16 ± 0.41 | -2.24 ± 0.28
GCUCAGCAAUAUUACGACGA | -1.94 ± 0.17 | -1.5 ± 0.18
UCGUAGCAAUAUUACGGGCU |  | -2.41 ± 0.49
GGGGAGCAAUAUUACGAAGG | -2.62 ± 0.41 | -1.44 ± 0.39
UUGUAGCAAUAUUACGCGCG | -1.25 ± 0.12 | -0.356 ± 0.18
CCACAGCAAUAUUACGCACU | -3.41 ± 0.1 | -2.27 ± 0.12
UAAUAGCAAUAUUACGUCAG | -2.58 ± 0.25 | -1.56 ± 0.2
AAAUAGCAAUAUUACGGGAU | -2.7 ± 0.099 | -1.03 ± 0.11
CUCGAGCAAUAUUACGUAGU | -3.91 ± 0.26 | -2.18 ± 0.21
AUUUAGCAAUAUUACGCAAG | -2.59 ± 0.32 | -0.488 ± 0.14
UCGGAGCAAUAUUACGCGGG | -4.21 ± 0.31 | -2.77 ± 0.27

Sequence | self-splicing fitness (ln) (30 °C) | self-splicing fitness (ln) (37 °C)
UCGUAGCAAUAUUACGCUAA |  | -1.48 ± 0.29
AGGUAGCAAUAUUACGAUCC | -0.0773 ± 0.022 | 0.212 ± 0.039
CCCCAGCAAUAUUACGGCUU | -3.23 ± 0.21 | -2.25 ± 0.23
GGACAGCAAUAUUACGUCUC | -4.03 ± 0.18 | -2.57 ± 0.2
CGUCAGCAAUAUUACGAUCA | -0.722 ± 0.096 | 0.228 ± 0.12
CGGCAGCAAUAUUACGUGAG | -0.694 ± 0.041 | -0.055 ± 0.069
UACAAGCAAUAUUACGCAUC | -2.99 ± 0.16 | -2.02 ± 0.18
GGCGAGCAAUAUUACGGUUU | -1.06 ± 0.076 | 0.0414 ± 0.11
UACCAGCAAUAUUACGAGGU | -3.36 ± 0.22 | -3.39 ± 0.23
UGGAAGCAAUAUUACGAUUU | -2.48 ± 0.087 | -1.7 ± 0.092
AUGUAGCAAUAUUACGCGAA | -0.976 ± 0.088 | -1.04 ± 0.13
AGCCAGCAAUAUUACGGCGG | -2 ± 0.1 | -1.1 ± 0.15
AACAAGCAAUAUUACGUCUC | -3.51 ± 0.2 | -1.89 ± 0.16
GAAUAGCAAUAUUACGCUAC | -1.75 ± 0.48 | 
UCGGAGCAAUAUUACGCGAU | -3.51 ± 0.19 | -2.42 ± 0.23
UAUCAGCAAUAUUACGCGCA | -0.571 ± 0.091 | 0.506 ± 0.11
GUCUAGCAAUAUUACGGGUC | -2.14 ± 0.2 | -1.67 ± 0.17
UCAGAGCAAUAUUACGAUUA | -1.18 ± 0.28 | 
GCAGAGCAAUAUUACGGCUU | -1.92 ± 0.27 | -0.671 ± 0.21
CUAAAGCAAUAUUACGGUAU | -3.53 ± 0.16 | -2.58 ± 0.17
GGAUAGCAAUAUUACGACCG | -1.59 ± 0.26 | -1.08 ± 0.28
UAUAAGCAAUAUUACGACUC | -1.51 ± 0.14 | -0.355 ± 0.14
AUUUAGCAAUAUUACGUCUA | -0.829 ± 0.15 | 0.0394 ± 0.15
GCCUAGCAAUAUUACGCCGA | -0.66 ± 0.49 | 
AAAUAGCAAUAUUACGGCAA | -0.542 ± 0.071 | 0.146 ± 0.075
AUCAAGCAAUAUUACGAGAC | -3.01 ± 0.3 | -1.87 ± 0.19
